Experiments:
Experiment in all cases: cleavage_in_vitro
[1] = system: T1, OMNI-134 (metagenomic, unknown); settings: TXTL; PAM NRAANYNN
T1 sequence: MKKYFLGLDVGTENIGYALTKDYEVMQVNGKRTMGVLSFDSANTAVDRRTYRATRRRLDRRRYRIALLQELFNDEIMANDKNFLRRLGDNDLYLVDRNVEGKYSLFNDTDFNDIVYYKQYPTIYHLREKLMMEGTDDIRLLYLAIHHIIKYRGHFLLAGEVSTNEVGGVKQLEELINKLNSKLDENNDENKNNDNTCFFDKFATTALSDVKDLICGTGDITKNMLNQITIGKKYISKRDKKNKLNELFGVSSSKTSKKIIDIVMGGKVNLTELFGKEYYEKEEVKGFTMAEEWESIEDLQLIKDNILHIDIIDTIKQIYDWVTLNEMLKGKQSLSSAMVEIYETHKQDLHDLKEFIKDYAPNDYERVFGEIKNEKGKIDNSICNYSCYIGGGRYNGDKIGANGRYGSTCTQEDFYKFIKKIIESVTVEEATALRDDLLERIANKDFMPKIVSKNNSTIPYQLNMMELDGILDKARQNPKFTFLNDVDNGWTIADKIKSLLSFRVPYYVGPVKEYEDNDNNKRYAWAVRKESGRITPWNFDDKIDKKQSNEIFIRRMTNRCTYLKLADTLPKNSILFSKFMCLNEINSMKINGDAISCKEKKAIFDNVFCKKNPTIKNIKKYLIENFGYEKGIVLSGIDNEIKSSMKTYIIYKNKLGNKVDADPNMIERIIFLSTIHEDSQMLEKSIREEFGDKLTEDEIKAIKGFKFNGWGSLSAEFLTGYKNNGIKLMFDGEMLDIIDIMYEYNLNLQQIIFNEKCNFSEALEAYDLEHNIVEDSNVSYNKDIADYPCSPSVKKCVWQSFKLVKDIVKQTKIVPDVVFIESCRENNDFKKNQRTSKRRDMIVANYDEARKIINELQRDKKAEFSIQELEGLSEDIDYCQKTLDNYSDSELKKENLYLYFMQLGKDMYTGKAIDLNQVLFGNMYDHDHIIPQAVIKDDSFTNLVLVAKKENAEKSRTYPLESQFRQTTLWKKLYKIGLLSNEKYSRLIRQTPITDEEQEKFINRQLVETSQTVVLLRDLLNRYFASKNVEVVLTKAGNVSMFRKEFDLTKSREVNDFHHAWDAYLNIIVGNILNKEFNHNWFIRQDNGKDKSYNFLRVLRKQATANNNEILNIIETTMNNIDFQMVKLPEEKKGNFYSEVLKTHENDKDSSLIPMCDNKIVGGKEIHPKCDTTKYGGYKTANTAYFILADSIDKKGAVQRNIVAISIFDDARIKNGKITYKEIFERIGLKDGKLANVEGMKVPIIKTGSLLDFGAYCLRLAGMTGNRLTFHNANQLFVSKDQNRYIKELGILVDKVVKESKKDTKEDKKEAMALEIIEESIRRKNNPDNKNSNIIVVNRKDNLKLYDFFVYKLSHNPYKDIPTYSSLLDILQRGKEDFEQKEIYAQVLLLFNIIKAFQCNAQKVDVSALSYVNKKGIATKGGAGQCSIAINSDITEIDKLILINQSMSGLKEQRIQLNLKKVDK

[2] = system: T2, OMNI-107 (metagenomic, unknown); settings: TXTL; PAM NNNAANNN
T2 sequence: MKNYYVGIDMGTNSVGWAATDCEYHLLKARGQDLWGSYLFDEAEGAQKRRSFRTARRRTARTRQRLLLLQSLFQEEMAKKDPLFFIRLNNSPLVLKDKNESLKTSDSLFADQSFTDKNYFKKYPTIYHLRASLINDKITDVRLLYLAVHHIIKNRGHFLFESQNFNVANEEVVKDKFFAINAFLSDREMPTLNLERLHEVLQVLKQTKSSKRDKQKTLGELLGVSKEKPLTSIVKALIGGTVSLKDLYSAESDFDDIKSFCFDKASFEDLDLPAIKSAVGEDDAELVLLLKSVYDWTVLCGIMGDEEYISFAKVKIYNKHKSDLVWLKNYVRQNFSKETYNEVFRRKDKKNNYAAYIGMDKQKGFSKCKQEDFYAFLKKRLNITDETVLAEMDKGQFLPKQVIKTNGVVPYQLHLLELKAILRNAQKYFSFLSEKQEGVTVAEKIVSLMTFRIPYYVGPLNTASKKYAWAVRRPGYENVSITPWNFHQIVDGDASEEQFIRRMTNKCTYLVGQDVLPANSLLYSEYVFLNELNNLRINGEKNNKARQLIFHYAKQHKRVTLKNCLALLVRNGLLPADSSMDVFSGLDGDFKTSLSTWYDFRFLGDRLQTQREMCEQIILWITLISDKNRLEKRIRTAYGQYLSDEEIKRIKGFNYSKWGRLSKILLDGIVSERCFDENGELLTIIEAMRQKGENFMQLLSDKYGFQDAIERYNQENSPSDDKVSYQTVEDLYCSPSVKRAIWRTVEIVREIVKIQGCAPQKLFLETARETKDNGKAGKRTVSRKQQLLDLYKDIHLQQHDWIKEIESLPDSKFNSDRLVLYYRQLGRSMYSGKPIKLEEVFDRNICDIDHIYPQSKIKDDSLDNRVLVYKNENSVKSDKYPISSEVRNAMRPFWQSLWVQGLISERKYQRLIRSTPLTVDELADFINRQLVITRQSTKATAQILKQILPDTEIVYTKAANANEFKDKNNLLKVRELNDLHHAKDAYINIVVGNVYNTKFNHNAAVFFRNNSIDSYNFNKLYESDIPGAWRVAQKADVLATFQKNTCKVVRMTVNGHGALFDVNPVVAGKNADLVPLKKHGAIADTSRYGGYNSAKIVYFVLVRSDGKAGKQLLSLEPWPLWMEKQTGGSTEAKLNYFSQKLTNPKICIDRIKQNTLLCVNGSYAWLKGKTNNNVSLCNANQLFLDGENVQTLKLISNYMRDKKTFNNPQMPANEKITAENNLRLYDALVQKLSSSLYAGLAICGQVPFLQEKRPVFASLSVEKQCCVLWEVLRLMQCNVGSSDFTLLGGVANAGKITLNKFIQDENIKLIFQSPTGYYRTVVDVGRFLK

[3] = system: T3, OMNI-97 (metagenomic, unknown); settings: TXTL; PAM NNRCCANN
T3 sequence: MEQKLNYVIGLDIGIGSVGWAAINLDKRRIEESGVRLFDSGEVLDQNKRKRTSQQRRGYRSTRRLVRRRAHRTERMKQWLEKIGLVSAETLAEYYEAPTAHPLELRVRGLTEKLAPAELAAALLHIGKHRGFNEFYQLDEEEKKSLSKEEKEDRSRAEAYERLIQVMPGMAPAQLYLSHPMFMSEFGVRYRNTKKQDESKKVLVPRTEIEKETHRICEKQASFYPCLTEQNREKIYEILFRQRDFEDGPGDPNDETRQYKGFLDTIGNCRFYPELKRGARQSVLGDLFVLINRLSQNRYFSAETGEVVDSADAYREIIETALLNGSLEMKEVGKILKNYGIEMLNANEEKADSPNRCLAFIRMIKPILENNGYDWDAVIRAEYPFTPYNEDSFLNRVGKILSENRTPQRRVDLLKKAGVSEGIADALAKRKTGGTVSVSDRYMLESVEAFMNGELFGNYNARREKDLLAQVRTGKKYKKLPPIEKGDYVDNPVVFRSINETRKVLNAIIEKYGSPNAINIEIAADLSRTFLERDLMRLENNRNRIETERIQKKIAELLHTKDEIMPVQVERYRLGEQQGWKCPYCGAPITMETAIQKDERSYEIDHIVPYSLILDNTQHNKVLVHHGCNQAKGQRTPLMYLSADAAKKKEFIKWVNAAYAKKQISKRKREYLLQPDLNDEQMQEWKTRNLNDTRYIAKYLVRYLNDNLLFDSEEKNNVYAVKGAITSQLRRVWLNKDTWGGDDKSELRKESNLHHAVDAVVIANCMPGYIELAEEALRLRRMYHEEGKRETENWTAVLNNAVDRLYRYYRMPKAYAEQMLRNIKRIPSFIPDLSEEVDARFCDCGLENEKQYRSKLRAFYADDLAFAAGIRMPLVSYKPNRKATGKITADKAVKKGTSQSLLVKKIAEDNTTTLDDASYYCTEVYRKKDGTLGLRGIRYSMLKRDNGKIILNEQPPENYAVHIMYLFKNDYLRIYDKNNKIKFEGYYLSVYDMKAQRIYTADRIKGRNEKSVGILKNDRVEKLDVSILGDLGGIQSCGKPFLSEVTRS

In the case of “GGAAGAGCAGAGCCUUGGUCUCGUUAUUUUGAAUACUAGAAAGUGUAUUUAAAGUAAAUAAAAAGUUAAAUUUAAAGAUAAAAGUAAAUAAUUAGUAAAUUAACUUCUGAUAAUGUGAAAUUCAUUUGUUUUUU / GGAAGAGCAGAGCCTTGGTCTCNNNNNNNN / NNNNNNNNGAGACCAAGGCTCTGCTCTTCC [T2 sgRNA 39 V1 ; T2 protospacer + 8N PAM library (pbPOS T2)]”, the activity (1-depletion score) [1] is reported as 0.99.

In the case of “GGAAGAGCAGAGCCUUGGUCUCGUUUGAGAGUAUUGUUAUUGAAAAAUAACAAUCGUUCAAAUAAGGUUUUACCUUAAGCAUCCUAUUGGAUCAGUCGACUAACCAGAGUCGACUAUUUUUU / GGAAGAGCAGAGCCTTGGTCTCNNNNNNNN / NNNNNNNNGAGACCAAGGCTCTGCTCTTCC [T2 sgRNA 34 V1 ; T2 protospacer + 8N PAM library (pbPOS T2)]”, the activity (1-depletion score) [1] is reported as 0.94.

Work on “GGAAGAGCAGAGCCUUGGUCUCGUUUGAGAGUAUUGUUGAAAAACAAUCGUUCAAAUAAGGUUUUACCUUAAGCAUCCUAUUGGAUCAGUCGACUAAUCAGAGUCGACUAUUUUUU / GGAAGAGCAGAGCCTTGGTCTCNNNNNNNN / NNNNNNNNGAGACCAAGGCTCTGCTCTTCC [T2 sgRNA 19 V1 ; T2 protospacer + 8N PAM library (pbPOS T2)]” yielded an activity (1-depletion score) [1] of 0.98.

For “GGAAGAGCAGAGCCUUGGUCUCGUUUGAGUAUGGUGUUAGAAAUAACACCAUUAGUUCAAAUAAGAUUUUUUCAAAUCGCCGAUUUUUCGGUAGUACACGAUGUGUACAUUGGAUCUGUUGCAAGACAGGUCCUUUUUUU / GGAAGAGCAGAGCCTTGGTCTCNNNNNNNN / NNNNNNNNGAGACCAAGGCTCTGCTCTTCC [T2 sgRNA 16 V1 ; T2 protospacer + 8N PAM library (pbPOS T2)]”, the activity (1-depletion score) [2] was 0.7.

“GGAAGAGCAGAGCCUUGGUCUCGUUUGAGUAUGGUGUUAGAAAUAACACCAUUAGUUCAAAUAAGAUUUUUUCAAAUCGCCGAUUUUUCGGUAGUACACGAUGUGUACAUUUUUU / GGAAGAGCAGAGCCTTGGTCTCNNNNNNNN / NNNNNNNNGAGACCAAGGCTCTGCTCTTCC [T2 sgRNA 16 V3 ; T2 protospacer + 8N PAM library (pbPOS T2)]” was tested, and the activity (1-depletion score) [2] was 0.83.

With “GGAAGAGCAGAGCCUUGGUCUCGUUUUGGGCCUCUGAUGGGAAACCAUCAGAGACCUGAGAUAAGGCUUUAUGCCGUAGGGUAUGGCGGUAACCCGGAGUAUUCCGAAUCCGCUUUUUCUUUGCCUGUAAAUACAGUAUAACAUAUUAUUUCGUCCUUUUUU / GGAAGAGCAGAGCCTTGGTCTCNNNNNNNN / NNNNNNNNGAGACCAAGGCTCTGCTCTTCC [T2 sgRNA 8 V1 ; T2 protospacer + 8N PAM library (pbPOS T2)]” the activity (1-depletion score) [3] was 0.93.

“GGAAGAGCAGAGCCUUGGUCUCGUUUUGGGCCUCUGAUGGGAAACCAUCAGAGACCUGAGAUAAGGCUUUAUGCCGUAGGGUAUGGCGGUAACCCGGAGUAUUCCGAAUCCGCUUUUUUU / GGAAGAGCAGAGCCTTGGTCTCNNNNNNNN / NNNNNNNNGAGACCAAGGCTCTGCTCTTCC [T2 sgRNA 8 V3 ; T2 protospacer + 8N PAM library (pbPOS T2)]” showed an activity (1-depletion score) [3] of 0.97.

Source: patent US20240425885
